# In patent US20090324606A1 (published 2009):
# Where a chain is given by its changes, count along the chain named.
# B1: 3D12 (wild type, as tested in Table 12) (antibody, V domains shown)
# VH: QVQLVQSGGGVVHPGRSLKLSCAGSGFTFSDYDMHWVRQAPGKGLEWVAVMWFDGTEKYSAESVKGRFTISRDNSKNTLFLQMNSLRADDTAVYYCAREPDWLLWGDRGALDVWGQGTTVTVSS
# VL: DIVMTQSPSTLSASVGDRVTITCRASQSISSWLAWYQQKPGKAPKLLMYEASSLESGVPSRFSGSGSGTEFTLTISSLQPDDFAAYYCQHYNTYPYTFGQGTKLEIKR
# B2: 3D12.3-8 (antibody, V domains shown)
# VH: B1 VH with M51I
# VL: B1 VL with E50G, E55G, Q79H
# B3: 3D12.3-10 (antibody, V domains shown)
# VH: B1 VH with L45F, W102R
# VL: B1 VL with E55G, S56R, N92S
# B4: 3D12.3-1 (RAZ1) (antibody, V domains shown)
# VH: B1 VH
# VL: B1 VL with R24W, W32R, S52T, E55G, N92D
# B5: AR2 (affinity improved HuC25) (antibody, V domains shown)
# VH: QVQLQESGGGLVQPGGSLRLSCAASGFTFSDHYMYWVRQAPGKGLEWVATISDGGSYTYYPDSVKGRFTTSRDNSKNTLYLQMNSLRAEDTAIYYCSRYRYDDAMDYWGQGTLVTVSS
# VL: EIVLTQSPATLSLSPGERATISCRASESVDSYGHSFMQWYQQKPGQAPRLLIYRASNLEPGIPARFSGSGSGTDFTLTISSLEPEDFAVYYCQQGNEVPFTFGQGTKVEIKR
# B6: AR1 (affinity improved HuC25) (antibody, V domains shown)
# VH: B5 VH with H32Y, T70I
# VL: B5 VL
# B7: Humanized C25 (HuC25) (antibody, V domains shown)
# VH: B5 VH with H32Y, T70I, I93M
# VL: B5 VL with G95S, V98D
# B8: WR1(V) (HuC25 derivative) (antibody, V domains shown)
# VH: B5 VH with F29S, T70V
# VL: B5 VL
# B9: WR1(T) (HuC25 derivative) (antibody, V domains shown)
# VH: B5 VH with F29S
# VL: B5 VL
# B10: scFv 3D12 (human, immune library) (scFv, V domains shown)
# VH: B1 VH
# VL: B1 VL
# Target: T1, Hall (A1) toxin (UniProt P0DPI0 2-1296)
# Test: not given
row,Binder,Kd [pM]
1,B1,940
2,B2,21
3,B3,28
4,B4,17
5,B5,47
6,B6,200
7,B7,1240
8,B8,450
9,B9,310

# Target: T2, Honey (A2) toxin (UniProt Q45894 2-1296)
# T2 sequence (Q45894 2-1296): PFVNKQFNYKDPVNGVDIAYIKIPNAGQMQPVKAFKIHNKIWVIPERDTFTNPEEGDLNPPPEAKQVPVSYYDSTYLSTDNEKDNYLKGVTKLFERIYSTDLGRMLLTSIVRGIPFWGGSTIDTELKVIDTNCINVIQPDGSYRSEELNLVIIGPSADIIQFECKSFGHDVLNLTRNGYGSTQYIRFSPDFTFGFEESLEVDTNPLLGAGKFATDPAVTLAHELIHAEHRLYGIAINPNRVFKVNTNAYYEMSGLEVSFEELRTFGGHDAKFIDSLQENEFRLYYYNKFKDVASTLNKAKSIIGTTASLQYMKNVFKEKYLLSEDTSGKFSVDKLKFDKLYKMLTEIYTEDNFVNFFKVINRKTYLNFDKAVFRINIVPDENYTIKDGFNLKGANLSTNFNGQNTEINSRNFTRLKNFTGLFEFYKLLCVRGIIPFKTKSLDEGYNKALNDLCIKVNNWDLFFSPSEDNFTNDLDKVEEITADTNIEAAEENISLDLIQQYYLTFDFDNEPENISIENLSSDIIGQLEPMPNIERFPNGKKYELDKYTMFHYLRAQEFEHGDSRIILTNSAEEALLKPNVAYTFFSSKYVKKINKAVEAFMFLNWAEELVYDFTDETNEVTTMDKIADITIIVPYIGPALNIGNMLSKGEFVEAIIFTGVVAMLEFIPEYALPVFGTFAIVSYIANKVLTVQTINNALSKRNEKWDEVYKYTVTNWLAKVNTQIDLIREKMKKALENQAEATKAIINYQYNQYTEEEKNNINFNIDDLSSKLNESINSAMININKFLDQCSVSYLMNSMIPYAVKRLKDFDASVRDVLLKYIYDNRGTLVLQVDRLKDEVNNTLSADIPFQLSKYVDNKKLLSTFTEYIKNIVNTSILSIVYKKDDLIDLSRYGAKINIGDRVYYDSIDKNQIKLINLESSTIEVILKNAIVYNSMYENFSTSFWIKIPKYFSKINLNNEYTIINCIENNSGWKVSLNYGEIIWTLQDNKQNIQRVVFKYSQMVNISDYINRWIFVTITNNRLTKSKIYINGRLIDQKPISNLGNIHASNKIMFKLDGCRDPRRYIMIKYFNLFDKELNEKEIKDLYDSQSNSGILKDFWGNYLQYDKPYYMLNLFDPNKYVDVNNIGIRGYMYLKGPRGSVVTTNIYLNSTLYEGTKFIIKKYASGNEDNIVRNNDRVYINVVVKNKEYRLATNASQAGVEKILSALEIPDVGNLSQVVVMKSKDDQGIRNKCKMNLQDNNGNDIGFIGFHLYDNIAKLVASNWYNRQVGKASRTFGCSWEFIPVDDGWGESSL
# Test: not given
row,Binder,Kd [pM]
1,B1,2200
2,B2,67
3,B3,81
4,B4,70
5,B6,100000
6,B7,250000
7,B8,9000
8,B9,3700

# Target: T1, Hall (A1) toxin
# Test: not given
# Remark: another data set of the same source
row,Binder,fold tighter binding than wild type 3D12 [fold]
1,B2,> 10
2,B3,> 10
3,B4,> 10

# Target: T2, Honey (A2) toxin
# Test: not given
# Remark: another data set of the same source
row,Binder,fold tighter binding than wild type 3D12 [fold]
1,B2,> 10
2,B3,> 10
3,B4,> 10

# Target: T3, botulinum neurotoxin serotype E (BoNT/E) (UniProt Q00496 2-1251)
# T3 sequence: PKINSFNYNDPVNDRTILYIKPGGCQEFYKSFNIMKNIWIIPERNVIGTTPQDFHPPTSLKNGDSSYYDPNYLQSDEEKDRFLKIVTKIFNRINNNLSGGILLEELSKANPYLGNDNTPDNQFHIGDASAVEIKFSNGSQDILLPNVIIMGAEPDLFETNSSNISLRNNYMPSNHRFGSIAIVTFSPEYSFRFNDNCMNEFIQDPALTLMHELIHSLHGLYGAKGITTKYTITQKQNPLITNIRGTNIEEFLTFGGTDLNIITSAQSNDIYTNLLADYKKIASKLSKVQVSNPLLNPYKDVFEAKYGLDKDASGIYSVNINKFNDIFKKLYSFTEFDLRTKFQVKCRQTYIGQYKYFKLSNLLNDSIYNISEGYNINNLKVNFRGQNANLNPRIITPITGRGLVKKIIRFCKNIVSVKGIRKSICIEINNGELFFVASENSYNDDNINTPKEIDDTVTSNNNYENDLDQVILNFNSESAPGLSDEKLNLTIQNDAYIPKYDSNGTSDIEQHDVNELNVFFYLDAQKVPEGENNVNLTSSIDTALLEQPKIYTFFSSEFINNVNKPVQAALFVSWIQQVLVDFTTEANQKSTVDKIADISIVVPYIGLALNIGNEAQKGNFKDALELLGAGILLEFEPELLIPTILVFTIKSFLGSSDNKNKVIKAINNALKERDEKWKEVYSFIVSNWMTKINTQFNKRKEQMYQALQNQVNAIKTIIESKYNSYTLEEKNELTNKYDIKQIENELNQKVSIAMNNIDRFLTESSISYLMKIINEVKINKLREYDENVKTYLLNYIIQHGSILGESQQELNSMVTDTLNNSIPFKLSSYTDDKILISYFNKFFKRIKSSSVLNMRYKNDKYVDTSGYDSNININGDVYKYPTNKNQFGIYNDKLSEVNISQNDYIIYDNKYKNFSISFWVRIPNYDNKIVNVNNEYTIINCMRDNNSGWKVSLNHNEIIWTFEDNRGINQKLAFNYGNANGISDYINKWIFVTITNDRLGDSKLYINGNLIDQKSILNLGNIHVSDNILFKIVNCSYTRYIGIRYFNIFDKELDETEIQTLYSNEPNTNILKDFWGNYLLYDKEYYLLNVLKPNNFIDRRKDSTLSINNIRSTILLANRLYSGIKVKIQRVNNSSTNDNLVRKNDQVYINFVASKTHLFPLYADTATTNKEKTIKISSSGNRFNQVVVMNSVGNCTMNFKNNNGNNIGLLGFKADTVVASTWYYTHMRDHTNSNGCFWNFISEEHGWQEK
# Test: ELISA, antigen coated at 10 µg/ml
row,Binder,binding result
1,B10,no binding

# Target: BoNT/A HN, recombinant translocation domain of botulinum neurotoxin serotype A (Clostridium botulinum, UniProt P0DPI0 449-870)
# Test: ELISA, antigen coated at 10 µg/ml
row,Binder,binding result
1,B10,no binding

# Target: T4, botulinum neurotoxin serotype B (BoNT/B) (UniProt P10844 2-1291)
# T4 sequence: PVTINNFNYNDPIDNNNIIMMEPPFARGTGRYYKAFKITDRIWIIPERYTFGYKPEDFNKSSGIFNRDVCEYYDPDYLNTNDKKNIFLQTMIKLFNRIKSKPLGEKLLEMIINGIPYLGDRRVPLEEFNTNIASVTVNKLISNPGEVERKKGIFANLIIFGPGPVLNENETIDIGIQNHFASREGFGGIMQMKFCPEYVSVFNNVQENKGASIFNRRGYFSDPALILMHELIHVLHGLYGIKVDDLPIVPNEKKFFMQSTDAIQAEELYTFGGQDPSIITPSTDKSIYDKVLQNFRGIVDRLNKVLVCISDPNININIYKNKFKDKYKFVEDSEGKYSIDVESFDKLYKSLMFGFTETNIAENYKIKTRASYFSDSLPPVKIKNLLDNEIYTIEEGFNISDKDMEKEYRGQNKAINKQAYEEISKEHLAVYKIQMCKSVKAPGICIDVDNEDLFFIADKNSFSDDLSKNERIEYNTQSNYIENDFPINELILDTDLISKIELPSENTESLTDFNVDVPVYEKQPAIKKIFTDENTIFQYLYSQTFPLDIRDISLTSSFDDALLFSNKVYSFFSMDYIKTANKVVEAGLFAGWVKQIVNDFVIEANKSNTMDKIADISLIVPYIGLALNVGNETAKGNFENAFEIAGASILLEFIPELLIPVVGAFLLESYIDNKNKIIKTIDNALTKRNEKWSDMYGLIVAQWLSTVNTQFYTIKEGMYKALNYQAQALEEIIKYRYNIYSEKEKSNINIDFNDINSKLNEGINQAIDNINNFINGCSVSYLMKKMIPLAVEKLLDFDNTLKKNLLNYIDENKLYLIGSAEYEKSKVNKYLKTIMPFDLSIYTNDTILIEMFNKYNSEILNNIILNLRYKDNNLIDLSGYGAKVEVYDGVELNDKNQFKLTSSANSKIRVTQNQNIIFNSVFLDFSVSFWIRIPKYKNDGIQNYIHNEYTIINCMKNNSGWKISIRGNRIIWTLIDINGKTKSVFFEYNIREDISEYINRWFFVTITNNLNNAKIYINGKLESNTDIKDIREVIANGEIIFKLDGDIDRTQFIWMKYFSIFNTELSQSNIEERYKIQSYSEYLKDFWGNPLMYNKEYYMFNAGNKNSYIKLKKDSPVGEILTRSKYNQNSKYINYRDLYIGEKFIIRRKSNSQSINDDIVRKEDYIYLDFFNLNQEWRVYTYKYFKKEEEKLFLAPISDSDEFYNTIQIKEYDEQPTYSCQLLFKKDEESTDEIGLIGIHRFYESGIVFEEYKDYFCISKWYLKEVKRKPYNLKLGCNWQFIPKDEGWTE
# Test: ELISA, antigen coated at 10 µg/ml
row,Binder,binding result
1,B10,no binding

# Target: T5, botulinum neurotoxin serotype C (BoNT/C) (UniProt P18640 2-1291)
# T5 sequence: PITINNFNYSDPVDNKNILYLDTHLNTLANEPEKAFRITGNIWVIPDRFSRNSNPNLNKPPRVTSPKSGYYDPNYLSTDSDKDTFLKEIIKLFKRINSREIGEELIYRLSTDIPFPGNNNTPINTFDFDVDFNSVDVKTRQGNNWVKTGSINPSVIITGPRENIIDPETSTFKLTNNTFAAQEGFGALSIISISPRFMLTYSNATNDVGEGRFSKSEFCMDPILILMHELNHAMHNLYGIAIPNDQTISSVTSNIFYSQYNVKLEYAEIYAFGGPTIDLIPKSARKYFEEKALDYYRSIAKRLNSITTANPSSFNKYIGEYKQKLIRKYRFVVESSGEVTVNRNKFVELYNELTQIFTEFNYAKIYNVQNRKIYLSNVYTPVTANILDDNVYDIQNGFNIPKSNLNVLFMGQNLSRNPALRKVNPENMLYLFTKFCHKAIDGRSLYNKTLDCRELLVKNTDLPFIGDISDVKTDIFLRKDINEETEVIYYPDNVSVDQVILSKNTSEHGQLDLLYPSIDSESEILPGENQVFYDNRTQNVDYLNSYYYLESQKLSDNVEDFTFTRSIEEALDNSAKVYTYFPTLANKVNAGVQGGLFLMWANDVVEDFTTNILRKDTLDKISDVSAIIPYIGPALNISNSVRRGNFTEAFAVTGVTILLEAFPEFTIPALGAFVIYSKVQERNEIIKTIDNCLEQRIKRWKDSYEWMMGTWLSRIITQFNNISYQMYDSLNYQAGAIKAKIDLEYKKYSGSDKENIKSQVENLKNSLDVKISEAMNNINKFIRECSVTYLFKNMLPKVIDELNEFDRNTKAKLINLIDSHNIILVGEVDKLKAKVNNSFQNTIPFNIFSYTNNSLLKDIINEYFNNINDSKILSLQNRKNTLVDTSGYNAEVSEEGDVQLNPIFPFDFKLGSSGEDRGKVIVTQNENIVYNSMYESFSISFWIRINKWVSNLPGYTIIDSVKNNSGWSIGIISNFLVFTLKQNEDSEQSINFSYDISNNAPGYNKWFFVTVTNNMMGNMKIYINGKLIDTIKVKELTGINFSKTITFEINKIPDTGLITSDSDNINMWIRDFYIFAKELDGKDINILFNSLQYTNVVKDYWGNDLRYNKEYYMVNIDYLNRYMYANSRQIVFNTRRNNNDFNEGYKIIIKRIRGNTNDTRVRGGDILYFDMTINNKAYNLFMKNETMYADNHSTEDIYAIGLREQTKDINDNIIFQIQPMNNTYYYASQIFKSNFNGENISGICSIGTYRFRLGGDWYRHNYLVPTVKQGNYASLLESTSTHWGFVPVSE
# Test: ELISA, antigen coated at 10 µg/ml
row,Binder,binding result
1,B10,no binding
